The values below come from article doi:10.1101/325035.

This assay deals with sfGFP-Ensconsin (full length) (Drosophila). Briefly: TIRF microscopy.

The substance “K560-mScarlet (truncated Kinesin-1 motor) (domain or fragment)” gave a fluorescence intensity of K560-mScarlet on microtubules with 25 nM sfGFP-Ensc of 34200 A.U.
